Laboratory results from publication doi:10.1101/2020.05.05.078782.

Target: BD1 bromodomain construct (residues 44-168) of human Brd4 (human) (UniProt O60885)
Test: SPR

Substance: YFV-C (residues 1-11) peptide acetylated at lysine 4
- Kd: 362 µM

Substance: YFV-C (residues 1-11) peptide acetylated at lysine 8
- Kd: 540 µM
